{"source": "patent US8399206B2", "about": "“Methods for diagnosis, prognosis and methods of treatment” (Nodality, Inc., priority 2008, dated 2013)", "molecules": {"B1": {"name": "IL-27: interleukin-27 (protein, UniProt Q8NEV9 29-243; Q14213 21-229, looked up)", "Interleukin-27 subunit alpha": "FPRPPGRPQLSLQELRREFTVSLHLARKLLSEVRGQAHRFAESHLPGVNLYLLPLGEQLPDVSLTFQAWRRLSDPERLCFISTTLQPFHALLGGLGTQGRWTNMERMQLWAMRLDLRDLQRHLRFQVLAAGFNLPEEEEEEEEEEEEERKGLLPGALGSALQGPAQVSWPQLLSTYRLLHSLELVLSRAVRELLLLSKAGHSVWPLGFPTLSPQP", "Interleukin-27 subunit beta": "RKGPPAALTLPRVQCRASRYPIAVDCSWTLPPAPNSTSPVSFIATYRLGMAARGHSWPCLQQTPTSTSCTITDVQLFSMAPYVLNVTAVHPWGSSSSFVPFITEHIIKPDPPEGVRLSPLAERQLQVQWEPPGSWPFPEIFSLKYWIRYKRQGAARFHRVGPIEATSFILRAVRPRARYYVQVAAQDLTDYGELSDWSLPATATMSLGK"}, "B2": {"name": "FLT-3L: fms-like tyrosine kinase receptor-3 ligand (protein, UniProt P49771 27-235, looked up)", "Fms-related tyrosine kinase 3 …": "TQDCSFQHSPISSDFAVKIRELSDYLLQDYPVTVASNLQDEELCGGLWRLVLAQRWMERLKTVAGSKMQGLLERVNTEIHFVTKCAFQPPPSCLRFVQTNISRLLQETSEQLVALKPWITRQNFSRCLELQCQPDSSTLPPPWSPRPLEATAPTAPQPPLLLLLLLPVGLLLLAAAWCLHWQRTRRRTPRPGEQVPPVPSPQDLLLVEH"}}, "key": {"[1]": {"test_system": "FLT3-WT and FLT3-ITD AML leukemic blasts", "test": "SCNP signaling and apoptosis in FLT3-WT versus FLT3-ITD AML samples (Example 9)", "format": "cell-based, human", "source_text": "This example identifies intracellular signaling pathways associated with FLT3 ITD in two independent cohorts of diagnostic AML samples that serve as an improvement over current clinical tools in the identification of clinically meaningful altered FLT 3 and has implications for cohort selection in the development of FLT3 inhibitors. The two cohorts of data were further analyzed to investigate the differences in signaling between FLT-WT and FLT-ITD samples. The first cohort of data (“study 1”) comprised the 34 samples from University Health Network outlined in Table 16 and Table 19. The second cohort of data (“study 2”) comprised an 83 sample subset of MD Anderson Cancer Center data outlined in Table 16 (and Table 19). The 83 sample subset was selected based on known FLT3 mutation status. Both cohorts of data were used to investigate differences in FLT3 signaling between leukemic blasts and control data.\nIn order to further characterize wild-type FLT receptor signaling in AML, we compared FLT3L-induced signaling in the myeloblast population of control BMMC samples with FLT3L-induced signaling in the leukemic blast population of FLT3-WT AML samples.\nUnivariate analysis, unadjusted for multiple testing, was performed sequentially and independently on the two study cohorts in order to identify signaling nodes that distinguished with FLT3-ITD from FLT3-WT AML patient samples. […] Results from both studies include the AUC, Wilcoxon and t-test p-value for each node, and the number/mean value of the samples in the FLT3-ITD and FLT3-WT AML groups with common stratifying nodes summarized in FIG. 23. Although the majority of the discussion herein is directed to nodes that had similar reponses within the two cohorts of data, some differences were observed between the two cohorts of data. These differences may have been due to the different clinical characteristics of the two cohorts of data, specifically biases in the data from UHN."}, "AML blasts": {"test_system": "AML blasts", "test": "SCNP / phospho-flow modulated signaling assay, AML study No. 1 (PBMC at diagnosis, CR vs NR)", "format": "cell-based, human"}, "[2]": {"conditions": "Study No. 1 sensitivity analysis, CR samples"}, "[3]": {"conditions": "Study No. 1 sensitivity analysis, NR samples incl. CRp"}}}
{"molecule": "B1", "values": [{"measurement": "responsiveness to IL-27 stimulation", "setting": "[1]; FLT3-ITD samples", "value": "minimal responsiveness"}, {"measurement": "IL-27-induced p-Stat responses", "setting": "[1]; FLT3-WT samples", "value": "wide range of p-Stat responses"}, {"measurement": "Mean Value of CRs, p-CREB Total Phospho", "setting": "AML blasts; [2]", "value": 1.25}, {"measurement": "Mean Value of CRs, p-Stat1 Total Phospho", "setting": "AML blasts; [2]", "value": 0.39}, {"measurement": "Mean Value of CRs, p-Stat3 Total Phospho", "setting": "AML blasts; [2]", "value": 1.01}, {"measurement": "Mean Value of NRs, p-CREB Total Phospho", "setting": "AML blasts; [3]", "value": 2.36}, {"measurement": "Mean Value of NRs, p-Stat1 Total Phospho", "setting": "AML blasts; [3]", "value": 0.81}, {"measurement": "Mean Value of NRs, p-Stat3 Total Phospho", "setting": "AML blasts; [3]", "value": 1.85}, {"measurement": "IL-27-induced levels of total p-Stat1 and p-Stat3", "setting": "AML blasts; staurosporine resistant samples vs other apoptosis categories", "value": "all greater in this apoptotic sub-category"}]}
{"molecule": "B2", "values": [{"measurement": "FLT3L-induced PI3K and MAPK pathway activation", "setting": "[1]; FLT3-ITD samples compared to FLT3-WT samples", "value": "lower levels of induced and total PI3K and MAPK pathway activation"}, {"measurement": "FLT3L-induced signaling at 15 minutes", "setting": "[1]; FLT3-WT AML samples", "value": "sustained p-Erk, p-CREB and p-Akt activation"}, {"measurement": "range of FLT3L-induced S6 signaling", "setting": "[1]; FLT3-WT AML samples", "value": "wide range of S6 signaling"}, {"measurement": "FLT3L-induced p-Akt and p-S6", "setting": "[1]; FLT3-WT AML samples, early time points (4 minutes, 10 minutes)", "value": "increased levels of p-Akt and p-S6"}, {"measurement": "Mean Value of CRs, p-Akt Fold", "setting": "AML blasts; [2]", "value": 0.10}, {"measurement": "Mean Value of CRs, p-CREB Fold", "setting": "AML blasts; [2]", "value": 0.07}, {"measurement": "Mean Value of CRs, p-CREB Total Phospho", "setting": "AML blasts; [2]", "value": 1.39}, {"measurement": "Mean Value of CRs, p-Erk Fold", "setting": "AML blasts; [2]", "value": 0.08}, {"measurement": "Mean Value of CRs, p-Plcγ2 Total Phospho", "setting": "AML blasts; [2]", "value": 1.81}, {"measurement": "Mean Value of CRs, p-S6 Fold", "setting": "AML blasts; [2]", "value": 0.14}, {"measurement": "Mean Value of CRs, p-Plcγ2 Fold", "setting": "AML blasts; Study No. 1 sensitivity analysis, CR samples, negative = down regulation", "value": "−0.14"}, {"measurement": "Mean Value of NRs, p-Akt Fold", "setting": "AML blasts; [3]", "value": 0.65}, {"measurement": "Mean Value of NRs, p-CREB Fold", "setting": "AML blasts; [3]", "value": 0.36}, {"measurement": "Mean Value of NRs, p-CREB Total Phospho", "setting": "AML blasts; [3]", "value": 2.13}, {"measurement": "Mean Value of NRs, p-Erk Fold", "setting": "AML blasts; [3]", "value": 0.33}, {"measurement": "Mean Value of NRs, p-Plcγ2 Total Phospho", "setting": "AML blasts; [3]", "value": 2.78}, {"measurement": "Mean Value of NRs, p-S6 Fold", "setting": "AML blasts; [3]", "value": 0.83}, {"measurement": "Mean Value of NRs, p-Plcγ2 Fold", "setting": "AML blasts; Study No. 1 sensitivity analysis, NR samples incl. CRp, negative = down regulation", "value": "−0.08"}]}
